Test results taken from patent US20140004128A1 (AstraZeneca / MedImmune, published 2014).
Read-outs that look alike come from different tables or passages of the source.

B1: Antibody 6 scFv (scFv)
chain: QVQLQQSGPRLVKPSQTLSLTCTVSGGSISSGGYYWSWIRQPAGKGLEWIGSIYYSGSTYYNPSLKSRVTISGDTPKNQFSLKLSSVTAADTAVYYCARTPAYFGQDRTDFFDVWGRGTLVTVSSDIVMTQSPSTLSASVGDRVTITCRASQGISSWLAWYQQKPGRAPKVLIYKASTLESGVPSRFSGSGSGTDFTLTISSLQPEDFATYYCANIAFPPWTFGQGTKLEIK
B2: Antibody 7 scFv (scFv)
chain: QVQLQQSGPRLVKPSQTLSLTCTVSGGSISSGGYYWSWIRQPAGKGLEWIGSIYYSGSTYYNPSLKSRVTISGDTPKNQFSLKLSSVTAADTAVYYCARTPAYFGQDRTDFFDVWGRGTLVTVSSDIVMTQSPSTLSASVGDRVTITCRASQGISSWLAWYQQKPGRAPKVLIYKASTLESGVPSRFSGSGSGTDFTLTISSLQPEDFATYYCQQSHHPPWTFGQGTKLEIK
B3: Antibody 2 IgG2 (antibody, V domains shown)
VH: QVQLQQSGPRLVKPSQTLSLTCTVSGGSISSGGYYWSWIRQPAGKGLEWIGSIYYSGSTYYNPSLKSRVTISGDTPKNQFSLKLSSVTAADTAVYYCARTPAYDGDARADFFDVWGRGTLVTVSS
VL: DIVMTQSPSTLSASVGDRVTITCRASQGISSWLAWYQQKPGRAPKVLIYKASTLESGVPSRFSGSGSGTDFTLTISSLQPEDFATYYCQDISFPPWTFGQGTKLEIK
B4: Antibody 7 GL IgG2 (antibody, V domains shown)
VH: QVQLQESGPGLVKPSETLSLTCTVSGGSISSGGYYWSWIRQPPGKGLEWIGSIYYSGSTYYNPSLKSRVTISGDTSKNQFSLKLSSVTAADTAVYYCARTPAYFGQDRTDFFDVWGRGTLVTVSS
VL: DIQMTQSPSTLSASVGDRVTITCRASQGISSWLAWYQQKPGKAPKVLIYKASTLESGVPSRFSGSGSGTEFTLTISSLQPDDFATYYCQQSHHPPWTFGQGTKLEIK
B5: Antibody 10 IgG2 (antibody, V domains shown)
VH: QVQLQQSGPRLVEPSQTLSLTCTVSGGSISSDGYYWSWIRQPAGKGLEWIGSIYYSGSTYYNPSLRSRVTISGDTPKNQFSLKLSSVTAADTAVYYCARTPAYFGQDRTDFFDVWGRGTLVTVSS
VL: DIVMTQSPSTLSASVGDRVTITCRASQGISSWLAWYQQKPGGAPKVLIYKASTLESGVPSRFSGSGSGTDFTLTISSLQPEDFATYYCQQSHHPPWTFSQGTKLEIK
B6: Antibody 5 IgG2 (antibody, V domains shown)
VH: QVQLQQSGPRLVKPSQTLSLTCTVSGGSISSGGYYWSWIRQPAGKGLEWIGSIYYSGSTYYNPSLKSRVTISGDTPKNQFSLKLSSVTAADTAVYYCARTPAYDGDARADFFDVWGRGTLVTVSS
VL: DIVMTQSPSTLSASVGDRVTITCRASQGISSWLAWYQQKPGRAPKVLIYKASTLESGVPSRFSGSGSGTDFTLTISSLQPEDFATYYCQQSLIPQWDFGQGTKLEIK
B7: Antibody 11 GL IgG2 (antibody, V domains shown)
VH: QVQLQESGPGLVKPSETLSLTCTVSGGSISADGYYWSWIRQPPGKGLEWIGSLYYSGSTYYNPSLRGRVTISGDTSKNQFSLKLSSVTAADTAVYYCARTPAYFGQDRTDFFDVWGRGTLVTVSS
VL: DIQMTQSPSTLSASVGDRVTITCRASQGISSWLAWYQQKPGKAPKVLIYKASTLESGVPSRFSGSGSGTEFTLTISSLQPDDFATYYCQQSHHPPWTFGQGTKLEIK
B8: Antibody 4 IgG2 (antibody, V domains shown)
VH: QVQLQQSGPRLVKPSQTLSLTCTVSGGSISSGGYYWSWIRQPAGKGLEWIGSIYYSGSTYYNPSLKSRVTISGDTPKNQFSLKLSSVTAADTAVYYCARTPAYDGDARADFFDVWGRGTLVTVSS
VL: DIVMTQSPSTLSASVGDRVTITCRASQGISSWLAWYQQKPGRAPKVLIYKASTLESGVPSRFSGSGSGTDFTLTISSLQPEDFATYYCQQSHHPNWDFGQGTKLEIK
B9: Antibody 9 IgG2 (antibody, V domains shown)
VH: QVQLQQSGPRLVEPSQTLSLTCTVSGGSISSDGYYWSWIRQPAGKGLEWIGSIYYSGSTYYNPSLKSRVTISGDTPKNQFSLKLSSVTAADTAVYYCARTPAYFGQDRTDFFDVWGRGTLVTVSS
VL: DIVMTQSPSTLSASVGDRVTITCRASQGISSWLAWYQQKPGRAPKVLIYKASTLESGVPSRFSGSGSGTDFTLTISSLQPEDFATYYCQQSHHPPWTFGQGTKLEIK
B10: Antibody 1 GL IgG2 (antibody, V domains shown)
VH: QVQLQESGPGLVKPSETLSLTCTVSGGSISSGGYYWSWIRQPPGKGLEWIGSIYYSGSTYYNPSLKSRVTISGDTSKNQFSLKLSSVTAADTAVYYCARTPAYDGDARADFFDVWGRGTLVTVSS
VL: DIQMTQSPSTLSASVGDRVTITCRASQGISSWLAWYQQKPGKAPKVLIYKASTLESGVPSRFSGSGSGTEFTLTISSLQPDDFATYYCQQSYSTPWTFGQGTKLEIK
B11: Antibody 11 IgG2 (antibody, V domains shown)
VH: QVQLQQSGPRLVEPSQTLSLTCTVSGGSISADGYYWSWIRQPAGKGLEWIGSLYYSGSTYYNPSLRGRVTISGDTPKNQFSLKLSSVTAADTAVYYCARTPAYFGQDRTDFFDVWGRGTLVTVSS
VL: DIVMTQSPSTLSASVGDRVTITCRASQGISSWLAWYQQKPGGAPKVLIYKASTLESGVPSRFSGSGSGTDFTLTISSLQPEDFATYYCQQSHHPPWTFSQGTKLEIK
B12: Antibody 3 IgG2 (antibody, V domains shown)
VH: QVQLQQSGPRLVKPSQTLSLTCTVSGGSISSGGYYWSWIRQPAGKGLEWIGSIYYSGSTYYNPSLKSRVTISGDTPKNQFSLKLSSVTAADTAVYYCARTPAYDGDARADFFDVWGRGTLVTVSS
VL: DIVMTQSPSTLSASVGDRVTITCRASQGISSWLAWYQQKPGRAPKVLIYKASTLESGVPSRFSGSGSGTDFTLTISSLQPEDFATYYCQQSLYPPWTFGQGTKLEIK
B13: Antibody 6 GL IgG2 (antibody, V domains shown)
VH: QVQLQESGPGLVKPSETLSLTCTVSGGSISSGGYYWSWIRQPPGKGLEWIGSIYYSGSTYYNPSLKSRVTISGDTSKNQFSLKLSSVTAADTAVYYCARTPAYFGQDRTDFFDVWGRGTLVTVSS
VL: DIQMTQSPSTLSASVGDRVTITCRASQGISSWLAWYQQKPGKAPKVLIYKASTLESGVPSRFSGSGSGTEFTLTISSLQPDDFATYYCANIAFPPWTFGQGTKLEIK

How the values were obtained:
Assay in all cases: cell-based or functional assay
[1] = molecular target: T1, recombinant human IL-18 (human, UniProt Q14116 37-193)
[2] = molecular target: T2, recombinant Rhesus Macaque IL-18 (Rhesus Macaque, UniProt Q9BGI5 37-193)
[3] = molecular target: T1, recombinant human IL-18; remark: listed apart in the source
[4] = molecular target: T2, recombinant Rhesus Macaque IL-18; remark: listed apart in the source
[5] = molecular target: T1, recombinant human IL-18; remark: listed apart in the source
[6] = molecular target: T2, recombinant Rhesus Macaque IL-18; remark: listed apart in the source
[7] = molecular target: T1, recombinant human IL-18; remark: listed apart in the source

Binder | IC50, IFNγ release KG-1 cell assay, human IL-18 [3] [nM] | IC50, IFNγ release KG-1 cell assay, Rhesus Macaque IL-18 [4] [nM] | IC50, IFNγ release KG-1 cell assay, human IL-18 [5] [nM] | also measured
B1 |  |  |  | IC50, IFNγ release KG-1 cell assay, human IL-18 [1]: 11.6 nM; IC50, IFNγ release KG-1 cell assay, Rhesus Macaque IL-18 [2]: 65.7 nM
B2 |  |  |  | IC50, IFNγ release KG-1 cell assay, human IL-18 [1]: 6.1 nM; IC50, IFNγ release KG-1 cell assay, Rhesus Macaque IL-18 [2]: 24.9 nM
B3 | 5 | 33 |  | 
B4 |  |  | 0.314 | IC50, IFNγ release KG-1 cell assay, Rhesus Macaque IL-18 [6]: 2.5 nM
B5 | 0.22 | 0.338 |  | 
B6 | 5.4 | 30 |  | 
B7 |  |  | 0.194 | IC50, IFNγ release KG-1 cell assay, Rhesus Macaque IL-18 [6]: 0.276 nM; IC50, IFNγ release by human PBMC stimulated with LPS and IL-12 (endogenous IL-18) [7]: 0.25 nM
B8 | 6.6 | 35 |  | 
B9 | 0.166 | 0.212 |  | 
B10 |  |  | 159 | 
B11 | 0.26 | 0.444 |  | 
B12 | 4.1 | 21 |  | 
B13 |  |  | 0.535 | IC50, IFNγ release KG-1 cell assay, Rhesus Macaque IL-18 [6]: 9.9 nM
